B1: GFP-hLCN2-R-NTD (domain or fragment)
chain: MASDPIFTLAPPLHCHYGAFPPNASGWEQPPNASGVSVASAALAASAASRVATSTDPSCSGFAPPDFNHCLKDWDYNGLPVLTTNAIGQWDLVCDLGWQVILEQI
modifications: Limits: printed residues 1-105 are numbered on the 538-aa isoform (NM_020372); the 649-aa entry is taken to carry a 111-residue N-terminal extension (649-538), so offset +111 (Cys15/59/70/94 = …)

How the values were obtained:
[1] = biological target: hLCN2-R-NTD quadruple mutant (hLCN2-R-NTD-QM) (human) (UniProt Q8WUG5); test: NMR 15N CPMG relaxation dispersion; 15N-labelled hLCN2-R-NTD-QM with 0.05, 0.1 and 0.15 eq of unlabelled NGAL; 25 °C; two-state exchange fit, kex and populations as global parameters for the C-terminal residues
[2] = biological target: N-terminal domain of the human lipocalin 2 receptor (hLCN2-R-NTD), wild type (human) (UniProt Q8WUG5); test: ITC; apoNGAL (500 μM) in the syringe, hLCN2-R-NTD form (50 μM) in the cell; 25 °C, 20 mM Tris, pH 7.4, 50 mM NaCl; single binding site fit
[3] = biological target: hLCN2-R-NTD quadruple mutant (hLCN2-R-NTD-QM) (human) (UniProt Q8WUG5); test: as above
[4] = biological target: hLCN2-R-NTD double mutant (hLCN2-R-NTD-DM), Cys-15–Cys-94 mutated out (human) (UniProt Q8WUG5); test: as above
[5] = biological target: T1, human neutrophil gelatinase-associated lipocalin, hNGAL(C87S) (human, UniProt P80188 21-198, C87S); test: MST; GFP-hLCN2-R-NTD fixed at 500 nM, apoNGAL varied 0–300 μM; 20 mM Tris/HCl, pH 7.4, 25 °C; conditions: both partners purified
T1 construct: human NGAL (LCN2), coding region amplified from pGEX-4T-hNGAL(C87S); The holo form is the same protein loaded with ferric enterobactin (a small molecule); it is told apart by the assay; the wild type was made only for the spin label; also called apoNGAL; LCN2; not shown: His6, N-terminal, cleaved

[6] = biological target: T1, human neutrophil gelatinase-associated …; test: MST; GFP-hLCN2-R-NTD fixed at 500 nM, NGAL/[FeIII(Ent)]3- (NGAL loaded with ferric enterobactin) varied 0–300 μM; 20 mM Tris/HCl, pH 7.4, 25 °C; conditions: both partners purified

T1 sequence (P80188 21-198 C107S): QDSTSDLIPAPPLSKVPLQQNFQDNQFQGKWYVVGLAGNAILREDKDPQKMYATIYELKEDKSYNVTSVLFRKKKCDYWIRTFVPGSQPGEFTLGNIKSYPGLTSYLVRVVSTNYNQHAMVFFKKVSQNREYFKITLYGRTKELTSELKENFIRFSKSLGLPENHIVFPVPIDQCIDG

Row | Molecule | kex (0.1 eq of NGAL) [1] [s⁻¹] | kex (0.15 eq of NGAL) [1] [s⁻¹] | population of bound state (0.1 eq of NGAL) [1] [%] | Kd [2] [µM] | dH [2] [kcal/mol] | stoichiometry N [2] | Kd [3] [µM] | dH [3] [kcal/mol] | Kd [4] [µM] | dH [4] [kcal/mol] | Kd [5] [µM] | Kd [6] [µM]
1 | human neutrophil gelatinase-associated lipocalin, hNGAL(C87S) (from UniProt P80188 21-198) (ligand) | 1300 | 1200 | 1 | 10 | -4.5 | 1 | 8 | -1.4 | 9 | -2.1 |  | 
2 | B1 |  |  |  |  |  |  |  |  |  |  | 6.6 | 20.7

Reference: article PMC4742754, “Biochemical and Structural Characterization of the Interaction between the Siderocalin NGAL/LCN2 (Neutrophil Gelatinase-associated Lipocalin/Lipocalin 2) and the N-terminal Domain of Its Endocytic Receptor SLC22A17*” (The Journal of Biological Chemistry, 2015)
